The target in assay [1] is canine IgM µ-chain antigen (protein accession number E2RE31) (canine (Canis lupus familiaris)). As to the kind of experiment: staining of cells from CLBL-1 xenograft tumours.
Assay [2] shares this target. As to the kind of experiment: flow cytometry screening of hybridoma clones on CLBL-1 cells. Background: Flow cytometry measures light scatter and fluorescence of single cells or particles in a stream.

A value given as a limit tells only on which side of the number the result lay.

B1: CL-m17A11 (antibody, V domains shown)
VH: QIQLQQSGPELVKPGASVKVSCKASGYSFTDYNIYWVKQSHGKSLEWIGFFDPHNGNTTYNQKFKGKATLTVDKSSSTAFMHLNSLTSEDSAVYYCAREGYLYAMDYWGQGTSVTVSS
VL: DVLMTQTPLSLPVSLGDQASISCRSSQSIEHSNGNTYLEWYLQKPGQAPKLLIFKVSNRFSGVPDRFSGSGSGTDFTLKISRMEAEDLGVYYCFQGSHVPPTFGGGTKLEIKR
In assay [1], B1 registered a % of tumour cells positive of more than 95%. The % binding (tier threshold of column) in assay [2] is more than 80%.

B2: CL-c17A11 (antibody, V domains shown)
VH: QIQLQQSGPELVKPGASVKVSCKASGYSFTDYNIYWVKQSHGKSLEWIGFFDPHNGNTTYNQKFKGKATLTVDKSSSTAFMHLNSLTSEDSAVYYCAREGYLYAMDYWGQGTSVTVSS
VL: DVLMTQTPLSLPVSLGDQASISCRSSQSIEHSNGNTYLEWYLQKPGQAPKLLIFKVSNRFSGVPDRFSGSGSGTDFTLKISRMEAEDLGVYYCFQGSHVPPTFGGGTKLEIKR
As for B2, the % of tumour cells positive in assay [1] was more than 95%.

The values are drawn from patent publication US20250277060A1.
